Experimental data reported in patent US8735341.

Test system: TAT-mMDH-eGFP fusion protein

In the case of “mitochondrial processing peptidases in the matrix contents of rat liver mitochondria”, the “cleavage of the mMDH signal sequence after incubation with mitochondrial matrix contents (gel)” value is reported as “The matrix signal peptidase progressively cleaved the mMDH signal sequence at two sites yielding two cleavage products of an estimated molecular mass of 32 kDa and 28.9 kDa”.
